From patent US20210355204A1 (XOMA TECHNOLOGY, published 2021) come the findings set out here.

Assay [1] addresses T1, TGFβ2 (human, UniProt P61812 303-414).
T1 construct: Commercial recombinant protein; also called transforming growth factor beta 2
T1 sequence (looked up): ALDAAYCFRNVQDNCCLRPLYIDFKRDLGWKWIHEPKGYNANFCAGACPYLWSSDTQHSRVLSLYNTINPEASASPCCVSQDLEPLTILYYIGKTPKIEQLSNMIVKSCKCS
Description: SPR competition: 4 nM TGFβ pre-mixed with 133 nM of the row's molecule, injected over immobilised XPA.42.089 (self competition). On the procedure:
(§1) A CM5 sensor chip (GE Healthcare) was used on a BIACORE 2000 system. The chip was preconditioned with four 30 second injections at 50 uL/minute flow rate of 100 mM HCl prior to immobilization. Running buffer for immobilization was a HEPES Buffered Saline (HBS-EP+) with 10 mM Hepes, 150 mM Sodium Chloride, 3 mM EDTA, and 0.05% Polysorbate 20. The chip surface was activated with a seven minute injection at 10 uL/minute of a freshly mixed 1:1 solution of 0.1 M N-Hydroxysuccinimide (NHS) and 0.4 M 1-Ethyl-3-(3-dimethylaminopropyl) carbodiimide hydrochloride (EDC). […] Injections were monitored and performed sequentially to establish immobilization levels very close to 300 RU. Eight minutes of 1 M Ethanolamine hydrochloride-NaOH pH 8.5 was injected to block the surface. The NHS, EDC, and Ethanolamine used were from the BIACORE Amine Coupling Kit. Fc1 was the activated and deactivated control.
(§2) Competition assays were performed using a running buffer of thoroughly degassed form of the HBS-EP+ buffer above supplemented with 1 mg/mL BSA. […] The TGFβ-RIIb-Fc recombinant receptor (R&D Systems) also was included as a competitor. Samples were allowed to come to equilibrium for 40 minutes at room temperature before the BIACORE run was started. Equilibrated samples were then injected at 30 uL/minute for three minutes over all of the flow cells. Regeneration was performed every cycle with one injection of 50 mM NaOH at 50 uL/minute for 6 seconds (5 μLs) and followed by a thirty second buffer injection. Samples were run in duplicates and analyzed for level of TGFβ bound at the end of the three minutes.

Assay [2] deals with T2, TGFβ3 (human, UniProt P10600 301-412).
T2 construct: Commercial recombinant protein; also called transforming growth factor beta 3
T2 sequence (looked up): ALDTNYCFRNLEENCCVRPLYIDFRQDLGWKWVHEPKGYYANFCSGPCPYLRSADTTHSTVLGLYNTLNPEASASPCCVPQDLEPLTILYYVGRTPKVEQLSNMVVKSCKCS
Described as above. The method, then: as §1, §2

Assay [3] has as its target T3, TGFβ1 (human, UniProt P01137 279-390).
T3 construct: mature; also called transforming growth factor beta 1
Described as above. The method, then: as §1, §2

Assay [4] concerns the target T1, TGFβ2. Description: SPR: 4 nM TGFβ without competitor injected over immobilised XPA.42.089 (about 300 RU). On the procedure:
as §1, §2
(In SPR one partner is held on a chip, and binding of the other changes the refractive index at the surface.)

Assay [5] has as its target T2, TGFβ3. The description is as above. On the procedure:
as §1, §2

In assay [6] the target is T3, TGFβ1. The assay is described as above. The method, then:
as §1, §2

Assay [7] concerns the target T1, TGFβ2. Description: SPR (Biacore 2000), antibody immobilised on CM4 chip, TGFβ injected. On the procedure:
(§3) A CM4 sensor chip (GE Healthcare) was used on a BIACORE 2000 system (GE Healthcare). The chip was preconditioned with two 30 second injections each at 50 μL/minute flow rate of 100 mM HCl, Glycine pH 2.0, 50 mM NaOH, and running buffer prior to immobilization. Running buffer for immobilization was a HEPES Buffered Saline (HBS-EP+) with 10 mM Hepes, 150 mM Sodium Chloride, 3 mM EDTA, and 0.05% Polysorbate 20 (Teknova). The chip surface was activated with a seven minute injection at 10 μL/minute of a freshly mixed 1:1 solution of 0.1 M N-Hydroxysuccinimide (NHS) and 0.4 M 1-Ethyl-3-(3-dimethylaminopropyl) carbodiimide hydrochloride (EDC). Following the activation injection, 1 ug/mL anti-TGFβ antibody in acetate pH 4.5 was injected at 10 μL/minute for one minute, with injections targeting 120 RU. 8 minutes of 1M Ethanolamine hydrochloride-NaOH pH 8.5 was injected to block the surface. The NHS, EDC, and Ethanolamine used were from the BIACORE Amine Coupling Kit.
(§4) Kinetic Analysis was performed using a running buffer of thoroughly degassed form of the HBS-EP+ buffer above supplemented with 1 mg/mL BSA (Sigma Aldrich, St. Louis Mo.). TGFβ sample injections were performed at 50 μL/minute for four minutes with a 900 second dissociation time. […] Regeneration was then performed with three injections of 30 seconds each of 100 mM HCl in 3 M MgCl₂ followed by a final 30 second blank buffer injection.
(§5) The data were analyzed using Scrubber2 (BioLogic Software, Campbell Australia) and was double referenced by subtracting both the blank flow cell data and the averaged bracketing blank injections. […] TGFβ proteins were injected at the same concentrations as described above at 30 μL/minute.

In assay [8] the target is T2, TGFβ3. Described as above. The method, then: as §3, §4, §5
Assay [9] concerns the target T3, TGFβ1. The assay is described as above. The method, then:
as §3, §4, §5

Assay [10] deals with T1, TGFβ2. Description: cell-based or functional assay.
The target of assay [11] is T3, TGFβ1. Description: cell-based or functional assay.
In assay [12] the target is T1, TGFβ2. Description: SPR (Biacore 2000), TGFβ immobilised on CM1 chip, antibody injected. On the procedure: (§6) The chip surface was activated with four minute injections at 20 μL/minute of a freshly mixed 1:1 solution of 0.1M N-Hydroxysuccinimide (NHS) and 0.4M 1-Ethyl-3-(3-dimethylaminopropyl) carbodiimide hydrochloride (EDC). Following the activation injection a 0.1 ug/mL solution of TGFβ in acetate pH 4.0 was injected at 20 μL/minute for several minutes. […] Injections of TGFβ were performed as a series of 1 to 2 minute injections looking at immobilized level between each injection. The target immobilized density of each TGFβ ligand was 30 RU. After the TGFβ immobilization injections, 4 minutes of 1 M Ethanolamine hydrochloride-NaOH pH 8.5 was injected to block the surface.
(§7) Each of the antibodies was diluted in running buffer to 5 μg/mL (33.3 nM) and 4 subsequent five-fold dilutions were prepared setting up concentrations of 33.33 nM, 6.67 nM, 1.33 nM, 267 pM, and 53 pM for each. These were then injected using the Kinject setting for four minutes at 50 μL/minute, with a 900 second dissociation time. Regeneration was then performed with a 12 μL (14.4 second) injection of 100 mM HCl at 50 μL/minute followed by an 18 second buffer injection. Injections were across all flow cells simultaneously and samples were run injected in quadruplicates with blank injections bracketing each set of descending concentration injection groups for each antibody. This means that before the same sample was injected a second time all other concentrations of all antibodies were injected once.
(§8) The data were analyzed using Scrubber2 (BioLogic Software, Campbell Australia) and were double referenced by subtracting both the blank flow cell data and the averaged bracketing blank injections.

The target in assay [13] is T2, TGFβ3. The description is as above. On the procedure:
as §6, §7, §8

Assay [14] addresses T3, TGFβ1. The description is as above. On the procedure: as §6, §7, §8
Assay [15] deals with T2, TGFβ3. Description: cell-based or functional assay.
Assay [16] concerns the target T1, TGFβ2. Description: SPR competition: 4 nM TGFβ pre-mixed with 133 nM of the row's molecule, injected over immobilised XPA.42.089 (competitor). On the procedure:
as §1, §2

In assay [17] the target is T2, TGFβ3. The description is as above. The method, then: as §1, §2
Assay [18] deals with T3, TGFβ1. The assay is described as above. On the procedure:
as §1, §2

B1: XPA.42.089 (antibody, IgG2, V domains shown)
VH: QVQLVQSGAEVKKPGSSVKVSCKASGGTFSSYAISWVRQAPGQGLEWMGGIIPIFGTANYAQKFQGRVTITADESTSTAYMELSSLRSEDTAVYYCARGLWEVRALPSVYWGQGTLVTVSS
VL: SYELTQPPSVSVAPGQTARITCGANDIGSKSVHWYQQKAGQAPVLVVSEDIIRPSGIPERISGSNSGNTATLTISRVEAGDEADYYCQVWDRDSDQYVFGTGTKVTVLG
Consider B1, for which the “average RU of TGFβ binding” value in the assay with TGFβ2 [1] was 0.363 RU; in the assay with TGFβ3 [2], 9.77 RU; with TGFβ1 [3], 1.7 RU; with TGFβ2 [4] it was 61 RU; in the assay with TGFβ3 [5], 23.6 RU; in the assay with TGFβ1 [6] it was 63.9 RU. Also, the equilibrium dissociation constant (Kd) (as a rule, the free concentration of one partner at which half of the binding sites on the other are occupied at equilibrium, for simple one-to-one binding) in the assay with TGFβ2 [7] was 0.025 nM; with TGFβ3 [8], 1.4 nM; with TGFβ1 [9], 0.0038 nM; in the assay with TGFβ2 [12], 0.29 nM; with TGFβ3 [13], above 17 nM; in the assay with TGFβ1 [14], 0.177 nM. Besides, the off-rate (koff) (in general, a measure of how fast the partners let go of each other) with TGFβ2 [7] was 0.000414 s⁻¹; with TGFβ3 [8], 0.0109 s⁻¹; with TGFβ1 [9] it was 0.000167 s⁻¹; with TGFβ2 [12], 0.00139 s⁻¹; with TGFβ3 [13], 0.057 s⁻¹; with TGFβ1 [14], 0.00106 s⁻¹. In addition, the kon (usually the rate constant with which the complex forms) with TGFβ2 [7] is 1.62e+07 M⁻¹ s⁻¹; in the assay with TGFβ3 [8], 7.7e+06 M⁻¹ s⁻¹; with TGFβ1 [9], 4.4e+07 M⁻¹ s⁻¹; in the assay with TGFβ2 [12], 4.8e+06 M⁻¹ s⁻¹; with TGFβ3 [13], 3.4e+06 M⁻¹ s⁻¹; in the assay with TGFβ1 [14], 5.98e+06 M⁻¹ s⁻¹. Besides, the “IL-11 Release Assay - IC50 (A549 cells)” value with TGFβ2 [10] came out at 0.058 µg/mL; with TGFβ1 [11], 0.037 µg/mL.

B2: XPA.42.681 (antibody, IgG2, V domains shown)
VH: not shown
VL: SYVLTQPPSVSVAPGKTARITCGGNNIGFRSVHWYQQKSGQAPVLVIYFDRARPSGIPERFSASNSENTATLTIRRVEAGDEADYYCQVWDSDSDDLVFGGGTQLTVLG
B2: the Kd with TGFβ2 [7] came out at 0.0029 nM; with TGFβ3 [8] it was 0.0057 nM; with TGFβ1 [9] it was 0.0017 nM; with TGFβ2 [12], 0.031 nM; in the assay with TGFβ3 [13], 0.054 nM; with TGFβ1 [14], 0.032 nM. Moreover, the dissociation rate constant (koff) with TGFβ2 [7] amounted to 4.99e-05 s⁻¹; with TGFβ3 [8], 7.5e-05 s⁻¹; with TGFβ1 [9], 7.2e-05 s⁻¹; with TGFβ2 [12], 0.000394 s⁻¹; with TGFβ3 [13] it was 0.000665 s⁻¹; with TGFβ1 [14], 0.000363 s⁻¹. The kon came out at 1.71e+07 M⁻¹ s⁻¹ with TGFβ2 [7]; 1.3e+07 M⁻¹ s⁻¹ with TGFβ3 [8]; 4.25e+07 M⁻¹ s⁻¹ with TGFβ1 [9]; 1.28e+07 M⁻¹ s⁻¹ with TGFβ2 [12]; 1.23e+07 M⁻¹ s⁻¹ with TGFβ3 [13]; 1.14e+07 M⁻¹ s⁻¹ with TGFβ1 [14]. Further, the “IL-11 Release Assay - IC50 (A549 cells)” value was 0.001 µg/mL with TGFβ2 [10], 0.0008 µg/mL with TGFβ3 [15] and 0.0004 µg/mL with TGFβ1 [11].

B3: XPA.42.068 (antibody, V domains shown)
VH: not shown
VL: SSELTQPPSVSVAPGEKARITCGGNNIGRKSVHWYQQRPGQAPVVVLYYDRVRPSGIPERFSGSNSGNTATLTITRVEAGDEADYFCQVWDNTSEHVVFGGGTQLTVLG
As to B3, the “average RU of TGFβ binding” value stood at 5.18 RU in the assay with TGFβ2 [16], 7.32 RU with TGFβ3 [17] and 10.8 RU with TGFβ1 [18]. The Kd worked out at 0.051 nM in the assay with TGFβ2 [7]; 0.455 nM with TGFβ3 [8]; 0.059 nM with TGFβ1 [9]; 0.109 nM in the assay with TGFβ2 [12]; 1.3 nM in the assay with TGFβ3 [13]; 0.313 nM with TGFβ1 [14]. Further, the koff worked out at 0.000535 s⁻¹ with TGFβ2 [7]; 0.00384 s⁻¹ in the assay with TGFβ3 [8]; 0.000905 s⁻¹ in the assay with TGFβ1 [9]; 0.000798 s⁻¹ in the assay with TGFβ2 [12]; 0.00696 s⁻¹ with TGFβ3 [13]; 0.0017 s⁻¹ with TGFβ1 [14]. Besides, the kon with TGFβ2 [7] turned out to be 1.04e+07 M⁻¹ s⁻¹; with TGFβ3 [8], 8.45e+06 M⁻¹ s⁻¹; with TGFβ1 [9], 1.53e+07 M⁻¹ s⁻¹; in the assay with TGFβ2 [12] it was 7.3e+06 M⁻¹ s⁻¹; with TGFβ3 [13], 5.45e+06 M⁻¹ s⁻¹; with TGFβ1 [14], 5.44e+06 M⁻¹ s⁻¹. Also, the “IL-11 Release Assay - IC50 (A549 cells)” value was 0.111 µg/mL with TGFβ2 [10], 1.79 µg/mL in the assay with TGFβ3 [15] and 0.221 µg/mL with TGFβ1 [11].
